Experimental data from patent US20100166704.

Tests used:
[1] = tested on: GST-TIAR RRM2; experiment: EMSA; conditions: SD ±5 nM, four experiments; relative Kd; n about 1.2
[2] = tested on: GST-TIA-1 RRM2; experiment: EMSA; conditions: SD ±15 nM, four experiments; relative Kd; n about 1.1

“WNV 3'(-) SL RNA (75 nt 3' terminal minus-strand)” gave a Kd [1] of 15 nM and a Kd [2] of 112 nM.
